Experimental data taken from publication PMC2063913 (The Journal of Cell Biology, 2006).
Values joined by “and” are separate entries in the source; they are usually repeats but may differ in a detail not shown here. Identical values can stand only once. Like-named read-outs stand apart in the source and are kept apart here. One block for each binder: values may come before it.

B1: yeast centrin (Cdc31p) (natural protein, S. cerevisiae)
chain: MSKNRSSLQSGPLNSELLEEQKQEIYEAFSLFDMNNDGFLDYHELKVAMKALGFELPKREILDLIDEYDSEGRHLMKYDDFYIVMGEKILKRDPLDEIKRAFQLFDDDHTGKISIKNLRRVAKELGETLTDEELRAMIEEFDLDGDGEINENEFIAICTDS

Legend:
[1] = target: T1, Sfi1p fragment K246-E677 (15-repeat construct) (S. cerevisiae, UniProt Q12369 246-677); experiment: native MS
T1 sequence (looked up): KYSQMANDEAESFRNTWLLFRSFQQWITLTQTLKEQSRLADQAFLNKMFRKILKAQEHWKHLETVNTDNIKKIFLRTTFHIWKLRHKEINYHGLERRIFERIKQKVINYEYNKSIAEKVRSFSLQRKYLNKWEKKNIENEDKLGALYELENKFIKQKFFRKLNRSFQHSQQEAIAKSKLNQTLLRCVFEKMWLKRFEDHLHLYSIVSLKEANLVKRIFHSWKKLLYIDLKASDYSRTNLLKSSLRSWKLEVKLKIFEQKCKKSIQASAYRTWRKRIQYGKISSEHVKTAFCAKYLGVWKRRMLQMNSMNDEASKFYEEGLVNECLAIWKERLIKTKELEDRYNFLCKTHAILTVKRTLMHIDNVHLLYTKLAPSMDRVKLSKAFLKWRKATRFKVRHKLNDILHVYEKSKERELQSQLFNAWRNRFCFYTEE

yeast centrin (Cdc31p) [2] = target: B1; experiment: crystal structure
yeast centrin (Cdc31p) [3] = target: B1; experiment: crystal structure; remark: listed apart in the source

Binder: B1
stoichiometry N [1]: 15 and 14

binding result (yeast centrin (Cdc31p) [2]): binds
B2: Sfi1p fragment N218-H306 (three repeats; crystal 2 construct) (domain or fragment, S. cerevisiae, UniProt Q12369 218-306, looked up)
chain: NEEANRFANQAKLRVQEAVFYIWSDKTLKYSQMANDEAESFRNTWLLFRSFQQWITLTQTLKEQSRLADQAFLNKMFRKILKAQEHWKH

binding result (yeast centrin (Cdc31p) [3]): binds
B3: Sfi1p fragment K643-E710 (two repeats; crystal 1 construct) (domain or fragment, S. cerevisiae, UniProt Q12369 643-710, looked up)
chain: KLNDILHVYEKSKERELQSQLFNAWRNRFCFYTEECNIQAISKRNYQLEKMVLKKFRERLLEIVKSEE
